The target in one series is GCN4 minimal bZIP (Saccharomyces cerevisiae, UniProt P03069 P03069:228-281). The series can be described thus: EMSA; enhanced by pX. To be noted: protein: synthetic; tags: synthetic peptide per text; chain copies: 2; label: 32P. A general note: In EMSA bound probe runs differently from free probe, usually more slowly.
Another series deals with ZTA minimal bZIP (Epstein-Barr virus, UniProt P03206 P03206:175-229). As to the kind of experiment: EMSA; stimulated by pX. To be noted: chain copies: 2; label: 32P.
Chain of ZTA minimal bZIP (P03206 175-229, one chain of several): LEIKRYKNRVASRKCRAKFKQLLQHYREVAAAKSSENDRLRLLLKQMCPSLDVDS
The target in series [1] is T1, BR-CC (GCN4 basic region with idealized leucine zipper) (Saccharomyces cerevisiae).
T1 chain: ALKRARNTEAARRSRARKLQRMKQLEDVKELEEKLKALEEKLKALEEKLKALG
As to the kind of experiment: EMSA; stimulated by pX. To be noted: protein: synthetic; tags: synthetic peptide; chain copies: 2; label: 32P.

For a further series, the target named is T2, ATF-2 (GST fusion) (UniProt P15336 P15336:144-505).
T2 sequence: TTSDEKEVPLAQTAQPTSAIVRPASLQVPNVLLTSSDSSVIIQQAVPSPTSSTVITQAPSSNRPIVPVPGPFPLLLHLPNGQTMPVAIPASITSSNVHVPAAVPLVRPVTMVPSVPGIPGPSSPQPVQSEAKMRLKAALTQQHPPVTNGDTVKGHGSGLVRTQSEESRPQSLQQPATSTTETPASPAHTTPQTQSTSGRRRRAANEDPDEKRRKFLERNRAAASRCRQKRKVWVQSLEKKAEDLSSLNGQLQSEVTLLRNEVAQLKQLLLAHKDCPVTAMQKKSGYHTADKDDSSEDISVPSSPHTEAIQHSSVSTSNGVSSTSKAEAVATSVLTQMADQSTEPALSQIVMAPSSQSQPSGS
As to the kind of experiment: EMSA; low binding without pX, greatly increased by pX. The conditions noted are these: tags: GST (pGEX-2T); chain copies: 2; label: 32P.

The next series has as its target CREB (GST fusion) (UniProt P16220-1 P16220-1:23-341). The series can be described thus: EMSA; low binding without pX, greatly increased by 100 ng pX. To be noted: tags: GST (pGEX-2T); chain copies: 2; label: 32P.
The next series addresses pX (Hepatitis B virus, UniProt P03165 P03165:1-154). The series can be described thus: EMSA; no detectable interaction of pX with DNA without transcription factor. The conditions noted are these: tags: His (pRSET-C); label: 32P.
The target in the next series is T3, ATF-1 (GST fusion) (UniProt P18846 P18846:57-271).
T3 sequence: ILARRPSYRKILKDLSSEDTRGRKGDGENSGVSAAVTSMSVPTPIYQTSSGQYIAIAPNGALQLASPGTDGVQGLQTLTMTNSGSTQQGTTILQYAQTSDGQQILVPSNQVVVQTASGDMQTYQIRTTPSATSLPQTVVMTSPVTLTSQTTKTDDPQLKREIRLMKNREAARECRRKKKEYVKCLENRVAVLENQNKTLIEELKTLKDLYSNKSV
The series can be described thus: EMSA; low binding without pX, greatly increased by pX; TFIIB or E. coli extract no effect. The conditions noted are these: tags: GST (pGEX-2T); chain copies: 2; label: 32P.

Chain of CREB (GST fusion) (P16220 other isoform, or with tags, fused parts or gaps): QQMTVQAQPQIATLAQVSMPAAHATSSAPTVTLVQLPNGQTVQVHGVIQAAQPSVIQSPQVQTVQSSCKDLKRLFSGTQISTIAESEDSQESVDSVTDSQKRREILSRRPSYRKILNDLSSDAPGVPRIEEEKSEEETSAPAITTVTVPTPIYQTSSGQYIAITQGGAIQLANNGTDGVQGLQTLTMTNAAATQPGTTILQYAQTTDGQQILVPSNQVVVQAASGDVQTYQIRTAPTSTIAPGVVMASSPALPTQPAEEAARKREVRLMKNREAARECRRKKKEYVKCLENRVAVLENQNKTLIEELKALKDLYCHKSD
Chain of pX (P03165 whole entry, the tested form may be a part, one chain of several): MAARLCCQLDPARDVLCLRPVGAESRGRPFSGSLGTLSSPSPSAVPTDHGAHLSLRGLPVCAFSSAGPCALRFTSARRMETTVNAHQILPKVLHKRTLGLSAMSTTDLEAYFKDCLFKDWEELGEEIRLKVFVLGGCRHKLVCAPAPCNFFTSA
Chain of GCN4 minimal bZIP (P03069 228-281, one chain of several): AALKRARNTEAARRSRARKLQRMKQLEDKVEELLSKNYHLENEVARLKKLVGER

B1: collagenase TRE oligoduplex (dsDNA)
DNA 1: AGCTTTGACTCATCCCGGA
DNA 2: TCCGGGATGAGTCAAAGCT
For B1, the binding result (in the series with GCN4 minimal bZIP; in the series with ZTA minimal bZIP; in series [1]) was “binds” in each case.

B2: CRE core oligoduplex (dsDNA)
DNA 1: TCCTAAGTGACGTCAGTGGAA
DNA 2: TTCCACTGACGTCACTTAGGA
Consider B2, for which the binding result was “binds” with ATF-2 (GST fusion), “binds” with CREB (GST fusion), “no binding” with pX and “binds” with ATF-1 (GST fusion).

These data come from US6051373, “Methods for screening for inhibitors of the transcription-enhancing activity of the X protein of hepatitis B virus” (Scriptgen Pharmaceuticals, Inc.).
